# Patent US20260008852A1
# Molecular target: B7-H3 on CHO-K1 cells stably transfected with B7-H3 (GenScript #M00536) (UniProt Q5ZPR3)
# Assay: cell-based or functional assay
# Sequence of B7-H3 on CHO-K1 cells stably transfected with B7-H3 (GenScript #M00536) (Q5ZPR3 29-534 limits assumed): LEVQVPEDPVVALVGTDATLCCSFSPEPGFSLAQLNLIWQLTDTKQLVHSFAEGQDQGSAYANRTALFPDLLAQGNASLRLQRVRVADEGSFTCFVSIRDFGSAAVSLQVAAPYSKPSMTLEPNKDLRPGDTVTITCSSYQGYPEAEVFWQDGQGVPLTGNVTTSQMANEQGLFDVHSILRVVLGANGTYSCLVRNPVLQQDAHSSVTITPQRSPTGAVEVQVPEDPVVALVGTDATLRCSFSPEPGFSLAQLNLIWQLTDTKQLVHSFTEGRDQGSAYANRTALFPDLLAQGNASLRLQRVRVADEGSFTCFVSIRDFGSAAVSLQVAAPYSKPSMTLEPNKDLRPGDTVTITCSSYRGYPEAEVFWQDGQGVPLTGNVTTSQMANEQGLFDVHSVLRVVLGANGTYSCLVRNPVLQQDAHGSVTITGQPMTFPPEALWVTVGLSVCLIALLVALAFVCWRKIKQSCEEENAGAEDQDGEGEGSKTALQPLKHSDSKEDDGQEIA
substance,measurement,value
Benchmark MGA-271 (antibody),"ADCC reporter assay, EC50 Value, CHOK1/B7-H3 cells",4.55 µg/mL
same,"ADCC reporter assay, Max RLU, CHOK1/B7-H3 cells",162000 RLU
